Results on two substances are retold here after US20170128554A1.

This assay has as its target Fetuin (denatured; sialylated complex N-linked glycans) (UniProt P12763). As to the kind of experiment: fetuin pull-down from cell lysates, low salt buffer, SDS-PAGE band quantification.

Chain of Fetuin (denatured; sialylated complex N-linked glycans) (P12763 19-359, one chain of several): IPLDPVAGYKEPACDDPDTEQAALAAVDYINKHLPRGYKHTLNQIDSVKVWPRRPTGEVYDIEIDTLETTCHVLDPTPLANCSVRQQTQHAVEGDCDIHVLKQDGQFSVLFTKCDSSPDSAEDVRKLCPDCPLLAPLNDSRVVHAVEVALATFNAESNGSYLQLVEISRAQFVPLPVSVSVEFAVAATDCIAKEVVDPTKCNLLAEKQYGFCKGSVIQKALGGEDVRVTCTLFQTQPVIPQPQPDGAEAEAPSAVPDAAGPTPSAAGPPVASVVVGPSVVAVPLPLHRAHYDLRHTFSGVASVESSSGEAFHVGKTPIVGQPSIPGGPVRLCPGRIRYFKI

Regarding “Fbs mutant S155A (from UniProt Q9UK22 113-296)”, the fold ability to be pulled down by immobilized fetuin, against wild type Fbs is 1.5 times.

With “Fbs mutant S155G (from UniProt Q9UK22 113-296)”, the fold capacity to interact with fetuin, against wild type Fbs is 2 fold.
